Among the data in publication PMC2151650 are percent reduction in triadin binding against WT RyR1 values, retold here.

For this test, the target named is triadin (rabbit) (UniProt Q28820). Briefly: co-IP.
triadin (rabbit), sequence (Q28820 whole entry): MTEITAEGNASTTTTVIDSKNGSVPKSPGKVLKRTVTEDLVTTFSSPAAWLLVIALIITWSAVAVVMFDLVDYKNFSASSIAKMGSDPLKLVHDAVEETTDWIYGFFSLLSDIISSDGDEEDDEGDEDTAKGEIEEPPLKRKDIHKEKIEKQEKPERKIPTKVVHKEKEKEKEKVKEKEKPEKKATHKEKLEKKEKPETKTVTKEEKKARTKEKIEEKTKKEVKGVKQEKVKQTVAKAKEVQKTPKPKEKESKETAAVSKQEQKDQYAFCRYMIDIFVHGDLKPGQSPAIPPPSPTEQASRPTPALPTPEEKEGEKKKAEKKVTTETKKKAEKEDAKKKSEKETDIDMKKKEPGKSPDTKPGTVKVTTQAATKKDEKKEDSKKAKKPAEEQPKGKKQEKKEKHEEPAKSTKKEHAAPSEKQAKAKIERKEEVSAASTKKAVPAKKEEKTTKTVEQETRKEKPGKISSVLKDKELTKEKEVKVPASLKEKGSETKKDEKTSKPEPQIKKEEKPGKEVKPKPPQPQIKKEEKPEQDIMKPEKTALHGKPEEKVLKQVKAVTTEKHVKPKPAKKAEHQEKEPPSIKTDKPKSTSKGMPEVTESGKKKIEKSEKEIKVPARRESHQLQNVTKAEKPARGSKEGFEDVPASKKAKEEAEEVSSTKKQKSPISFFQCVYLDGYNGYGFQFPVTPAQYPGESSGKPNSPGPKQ

As to “RyR1 D4878A/D4907A, P11716 1-5037 (natural protein)”, the percent reduction in triadin binding against WT RyR1 was determined as 50%.
